Assay results from US20130059772A1, “Use of Repeat Sequence Protein Polymers in Personal Care Compositions” (DANISCO US INC., priority 2003, published 2013).
“And” between values parts separate entries of the source, which are not always exact repeats. Equal entries are not always repeated.

Tests used:
Type in all cases: physicochemical
[1] = Glass transition and decomposition temperature (DSC, DMA, TGA)
Experimental: In this Example, experiments performed to determine the glass transition temperature (Tg) and decomposition temperature of SELP47K. (Example 1) are described. Approximately 10 mg of SELP47K material was crimped in an aluminum (Al) pan, cooled to <−150° C., then heated to >200° C. at 10° C./min under a He (helium) atmosphere. […] This initially appeared to be followed by another endothermic region and the analysis was stopped near 225° C. […] Another sample of material was examined by TGA and found to have mass loss (−8%) from room temperature to approximately 200° C., confirming the broad endotherm observed with the first sample.
A strip of SELP47K was examined by using a dynamic mechanical analyzer (DMA) over the range of −150 to 200° C. […] Another DSC sample was run, pre-heating at 100° C. for 1 hour initially to remove volatiles. The mass loss endotherm was mostly removed, and a transition at 188° C. (half-height) remained. This run was stopped and the sample cooled and examined.

[2] = Tensile mechanical properties of films (INSTRON Model 5564)
Experimental: In this Example, experiments performed to determine tensile mechanical properties of SELP47K (Example 1 and 2) are described. Samples of SELP47K were prepared by freeze-drying purified SELP47K solution. The subsequent powder was re-dissolved in water to a solids concentration of approximately 5, 10 or 20%. These solutions were then mixed with plasticizers to an effective concentration of 1-3%. Plasticizers included in this study were polyethylene glycol 200, glycerin, and triethanolamine. Eleven milliliters of these solutions were poured into a large (6 inch square) polyethylene weigh boats and the solutions were allowed to dry either in an oven at 37° C. or room temperature for 1 to 3 days. Subsequent films were successfully peeled from the weigh boat with a spatula without any damage to the polymer film.
The films were then cut into tensile specimens using a very sharp fabric cutting wheel. The specimens were approximately 6 cm long and 2.5 cm wide. The gauge length for these samples (length of sample between tensile testing clamps) was set to 3 cm and the thickness of the sample was measured at 5 points along the gauge length using a digital thickness coating instrument. The thickness of the samples was recorded as the average of the 5 points and varied from 46.4 to 188.2 microns. Both the sample width and sample thickness were entered into an Instron software program (Merlin) to enable it to calculate the tensile strength and tensile modulus.
The samples were loaded into the jaws of an INSTRON® Model 5564 apparatus making sure the gauge length was always set to 3 cm and that the sample was not under any static load or stress. […] The results of the stress-strain measurements can be seen for four of the samples in FIG. 1. The elongation % of SELP47K was determined to be 8.4 for 20% SELP47K solution film made at room temperature (RM). The tensile strength was determined to be 65.9 megapascals (MPa), and the tensile modulus was determined to be 1716.50 MPa. The results of plastisizer-SELP47K films reveal strong correlation between concentration and mechanical properties measured. For 3% PEG200 containing SELP47K, the films elongation % reached 541.

[3] = Cloud point determination (turbidity at 300 nm, 20-80° C.)
Experimental: The cloud point of SELP47K was determined by first preparing 0.1% and 1% solutions of polydispersed SELP 47K (Example 2) in three different buffers: 50 mM acetate pH 5; 50 mM Tris pH 7; 50 mM Tris pH 9. A 0.5 M NaCl salt solution was prepared in water and salt containing solutions were prepared using this stock solution. Samples were placed in quartz cuvettes and the cloud point determination was carried out using a Cary 300 spectrophotometer equipped with a thermal program and multiple cuvettes configuration. Turbidity measurements were made at 300 nm and the temperature was varied from 20-80° C.

[4] = Example 1 Material [GC2596-26-A], film from 05% sol., 37 C.
[5] = Example 1 Material [GC2596-26-A], film from 05% sol., RM
[6] = Example 1 Material [GC2596-26-A], film from 10% sol., 37 C.
[7] = Example 1 Material [GC2596-26-A], film from 10% sol., RM
[8] = Example 1 Material [GC2596-26-A], film from 20% sol., 37 C.
[9] = Example 1 Material [GC2596-26-A], film from 20% sol., RM
[10] = Example 2 Material [GC2596-26-B], film from 10% sol., 37 C.

Q: Which decomposition temperature [1] does the source give for “SELP47K: silk-elastin repeat sequence protein copolymer, head-[(GAGAGS)2(GVGVP)3GKGVP(GVGP)4(GAGAGS)2]13-tail (SEQ ID NO:19), 886 amino acids” here?
A: 332 °C

Q: And the glass transition ([1]; film material, DMA/DSC)?
A: approximately 189 °C

Q: What about the “Tensile Strain” value [2, 4] of the same substance?
A: 2.6%

Q: And the “Tensile Strength” value [2, 4]?
A: 19.83 MPA

Q: What about the “Tensile Strain” value [2, 5] of the same substance?
A: 2.4%

Q: What about the “Tensile Strength” value [2, 5] of the same substance?
A: 21.43 MPA

Q: And the “Tensile Strain” value [2, 6]?
A: 3.6%

Q: What about the “Tensile Strength” value [2, 6] of the same substance?
A: 62.06 MPA

Q: What about the “Tensile Strain” value [2, 7] of the same substance?
A: 3.5%

Q: What about the “Tensile Strength” value [2, 7] of the same substance?
A: 62.98 MPA

Q: And the “Tensile Strain” value [2, 8]?
A: 8.6%

Q: What about the “Tensile Strength” value [2, 8] of the same substance?
A: 74.14 MPA

Q: And the “Tensile Strain (elongation %)” value [2, 9]?
A: 8.4%

Q: And the “Tensile Strength” value [2, 9]?
A: 65.9 MPA and 65.90 MPA

Q: And the Tensile Strain [2, 10]?
A: 6.98%

Q: And the “Tensile Strength” value [2, 10]?
A: 39.34 MPA

Q: What about the tensile modulus ([2]; film from 20% SELP47K solution made at room temperature (RM)) of the same substance?
A: 1716.50 MPa

Q: And the cloud point ([3]; 0.1% solution, 0.5 M NaCl, irrespective of pH)?
A: 50 °C

Q: And the cloud point ([3]; 0.1% solution, pH 5)?
A: remained soluble even at 80 °C

Q: What about the cloud point ([3]; 0.1% solution, pH 9) of the same substance?
A: 60 °C

Q: And the cloud point ([3]; 1% solution in water)?
A: 70 °C

Q: And the cloud point ([3]; 1% solution, 0.5 M salt, irrespective of pH)?
A: 55 °C

Q: What about the cloud point ([3]; 1% solution, 5-9 pH range) of the same substance?
A: ~65 °C

Q: What about the cloud point ([3]; 1% solution, pH 5 buffer, 0.2 M salt) of the same substance?
A: 65 °C

Q: What about the cloud point ([3]; 1% solution, pH 5 buffer, 0.5 M salt) of the same substance?
A: below 60 °C

Q: And the cloud point ([3]; 1% solution, pH 5 buffer, no salt)?
A: 75 °C
